Experimental data taken from paper PMC8740826 (Protein Science : A Publication of the Protein Society, 2021).
Where two headings read alike, the source gives them in different places.

Tests used:
SEC-SAXS [1] = molecular target: the molecule itself; assay: SEC-SAXS
SEC-SAXS [2] = molecular target: the molecule itself; assay: SEC-SAXS; remark: listed apart in the source

| Protein | stoichiometry N (SEC-SAXS [1]) | stoichiometry N (SEC-SAXS [2]) |
| --- | --- | --- |
| glucose isomerase from Streptomyces rubiginosus (enzyme) not shown | 4 | – |
| β-amylase from sweet potato (enzyme) APIPGVMPIGNYVSLYVMLPLGVVNADNVFPDKEKVEDELKQVKAGGCDGVMVDVWWGIIEAKGPKQYDWSAYRELFQLVKKCGLKIQAIMSFHQCGGNVGDAVFIPIPQWILQIGDKNPDIFYTNRAGNRNQEYLSLGVDNQRLFQGRTALEMYRDFMESFRDNMADFLKAGDIVDIEVGCGAAGELRYPSYPETQGWVFPGIGEFQCYDKYMVADWKEAVKQAGNADWEMPGKGAGTYNDTPDKTEFFRPNGTYKTDMGKFFLTWYSNKLIIHGDQVLEEANKVFVGLRVNIAAKVSGIHWWYNHVSHAAELTAGFYNVAGRDGYRPIARMLARHHATLNFTCLEMRDSEQPAEAKSAPQELVQQVLSSGWKEYIDVAGENALPRYDATAYNQMLLNVRPNGVNLNGPPKLKMSGLTYLRLSDDLLQTDNFELFKKFVKKMHADLDPSPNAISPAVLERSNSAITIDELMEATKGSRPFPWYDVTDMPVDGSNPFD | – | 4 |
